Laboratory results: patent US20190225662A1

Target: GABABR1a on mouse hippocampal neurons (cultures and slices) (mouse), Q9WV18
Assay: cell-based or functional assay

Chain of GABABR1a on mouse hippocampal neurons (cultures and slices) (mouse), Q9WV18 (Q9WV18 20-960): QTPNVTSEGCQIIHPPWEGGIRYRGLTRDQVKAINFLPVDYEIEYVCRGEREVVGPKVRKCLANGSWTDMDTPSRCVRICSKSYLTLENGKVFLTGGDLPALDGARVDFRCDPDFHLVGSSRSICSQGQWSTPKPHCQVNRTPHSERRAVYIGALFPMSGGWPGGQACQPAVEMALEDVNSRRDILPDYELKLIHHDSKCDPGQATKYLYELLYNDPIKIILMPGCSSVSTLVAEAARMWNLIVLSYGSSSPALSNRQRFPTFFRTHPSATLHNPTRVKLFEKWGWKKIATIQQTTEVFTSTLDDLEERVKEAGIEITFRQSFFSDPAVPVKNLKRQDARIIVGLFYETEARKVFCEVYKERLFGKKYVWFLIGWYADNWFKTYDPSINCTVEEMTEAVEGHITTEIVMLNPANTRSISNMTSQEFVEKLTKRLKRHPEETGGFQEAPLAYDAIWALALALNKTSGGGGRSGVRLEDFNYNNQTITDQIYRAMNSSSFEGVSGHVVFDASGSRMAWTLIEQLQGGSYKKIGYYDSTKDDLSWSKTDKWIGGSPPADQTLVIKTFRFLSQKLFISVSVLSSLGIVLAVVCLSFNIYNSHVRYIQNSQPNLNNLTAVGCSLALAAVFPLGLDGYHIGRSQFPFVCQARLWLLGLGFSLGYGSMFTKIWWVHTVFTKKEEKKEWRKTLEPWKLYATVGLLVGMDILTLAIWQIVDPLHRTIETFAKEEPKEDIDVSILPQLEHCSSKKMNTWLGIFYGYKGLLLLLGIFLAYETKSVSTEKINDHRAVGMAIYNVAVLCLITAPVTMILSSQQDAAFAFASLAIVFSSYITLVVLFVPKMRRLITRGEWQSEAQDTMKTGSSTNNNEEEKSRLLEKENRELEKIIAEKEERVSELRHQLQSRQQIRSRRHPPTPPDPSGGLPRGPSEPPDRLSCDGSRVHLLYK

B1: sAPPα (Fc cleaved), P12023 18-687 (ligand)
chain: LEVPTDGNAGLLAEPQIAMFCGKLNMHMNVQNGKWESDPSGTKTCIGTKEGILQYCQEVYPELQITNVVEANQPVTIQNWCKRGRKQCKTHTHIVIPYRCLVGEFVSDALLVPDKCKFLHQERMDVCETHLHWHTVAKETCSEKSTNLHDYGMLLPCGIDKFRGVEFVCCPLAEESDSVDSADAEEDDSDVWWGGADTDYADGGEDKVVEVAEEEEVADVEEEEADDDEDVEDGDEVEEEAEEPYEEATERTTSTATTTTTTTESVEEVVRVPTTAASTPDAVDKYLETPGDENEHAHFQKAKERLEAKHRERMSQVMREWEEAERQAKNLPKADKKAVIQHFQEKVESLEQEAANERQQLVETHMARVEAMLNDRRRLALENYITALQAVPPRPHHVFNMLKKYVRAEQKDRQHTLKHFEHVRMVDPKKAAQIRSQVMTHLRVIYERMNQSLSLLYNVPAVAEEIQDEVDELLQKEQNYSDDVLANMISEPRISYGNDALMPSLTETKTTVELLPVNGEFSLDDLQPWHPFGVDSVPANTENEVEPVDARPAADRGLTTRPGSGLTNIKTEEISEVKMDAEFGHDSGFEVRHQK
Question: For B1, which reduction of the frequency of miniature excitatory postsynaptic currents (mEPSCs), 250 nM sAPPα, primary hippocampal neurons is on record?
Answer: The reduction of the frequency of miniature excitatory postsynaptic currents (mEPSCs), 250 nM sAPPα, primary hippocampal neurons was 39%.

Question: And the reduction of the frequency of miniature inhibitory postsynaptic currents (mIPSCs), 250 nM sAPPα, primary hippocampal neurons?
Answer: The reduction of the frequency of miniature inhibitory postsynaptic currents (mIPSCs), 250 nM sAPPα, primary hippocampal neurons was 44%.

Question: What about the reduction of total presynaptic strength (S=ΔF×D), FM1-43 synaptic vesicle recycling, cultured hippocampal neurons of the same binder?
Answer: The reduction of total presynaptic strength (S=ΔF×D), FM1-43 synaptic vesicle recycling, cultured hippocampal neurons was 57%.

Question: And the reduction on mIPSC amplitude?
Answer: The reduction on mIPSC amplitude was 14%.
